Legend:
[1] = molecular target: T1, Escherichia coli HSP70 family member DnaK (Escherichia coli, UniProt P0A6Y8); experiment: ELISA: binding of DnaK to immobilized (misfolded) protein ligands
T1 construct: purchased Stressgen (Ann Arbor, Mich., USA) SPP-630
Method: Recombinant Escherichia coli (E. coli) DnaK was purchased from Stressgen (Ann Arbor, Mich., USA; SPP-630). For the binding studies first lot B502468 (100 μg, lot A) and then lot 05240609 (200 μg, lot B) was used.
Binding of chaperones to immobilized (misfolded) protein ligands was determined using an enzyme linked immuno sorbent assay (ELISA) approach. For this purpose 50 μl/well of potential ligands at indicated concentrations or coat buffer only for control and background measurement purposes, were coated overnight at 4° C. or coated for 1 h at room temperature, with motion, in 50 mM NaHCO3 pH 9.6 (coat buffer). In general, ligands were coated at 5 μg/ml, unless stated otherwise. For example, BiP binding peptides 6BB# and oxLDL were coated at 50 μg/ml. Native haemoglobin (Sigma-Aldrich, H7379), albumin, IgIV Gammagard and ovalbumin controls were prepared from lyophilized stocks. The controls were prepared by dissolving lyophilized proteins at 1 mg/ml in PBS upon resuspending by pipetting, followed by a 30 minutes period at the roller device, at room temperature. The protein solutions were centrifuged for 10 minutes at 16,000*g and diluted in coat buffer. After coating the plates were washed at least three times with 50 mM Tris-HCl pH 7.3, 150 mM NaCl, 0.1% v/v Tween20, and blocked with Blocking reagent (Roche Diagnostics, Almere, The Netherlands; 11112589001), for 1 h at room temperature, with motion. Plates were washed three times and incubated in triplicate with indicated chaperone dilution series, at 50 μl/well, for 1 h at room temperature, with constant motion. For HSP90, 5 mM DTT is incorporated in the binding buffer (PBS/0.1% Tween20) to avoid unwanted disulfide bond formation of the HSP90. Plates were washed three times and incubated with anti-FLAG antibody (mouse antibody, M2, peroxidase conjugate; Sigma, A-8592) for BiP-FLAG-His, anti-His-tag antibody (Mouse Monoclonal Antibody, Cat. No. 70796, Novagen [0.2 mg/ml]) for HSP60, a 1:1 mix of 500-fold diluted anti-HSP90beta antibodies (Stressgen, SPA-643 [mouse monoclonal IgM], SPA-646 [rabbit polyclonal]) for HSP90 and an anti-DnaK antibody (Stressgen, 023SPA-880D [mouse monoclonal antibody]) for DnaK. After four wash cycles, secondary antibodies were added to the wells when required, 50 μl/well, for 45′ at room temperature, with motion. RAMPO and SWARPO were used at 3000 times dilution. […] In a second experiment with more immobilized misfolded proteins and controls, the detection of bound HSP90 with the mix of two anti-HSP90 antibodies was achieved by mixing 1:1500 SWARPO with 1:3000 RAMPO. After 5 washes with wash buffer followed by two washes with PBS, binding of antibodies was assessed. Bound anti-FLAG-PO, peroxidase-conjugated rabbit anti-mouse immunoglobulins (RAMPO, P0260, DAKOCytomation, Glostrup, Denmark) or peroxidase-coupled swine anti-rabbit immunoglobulins (SWARPO, P0217, DAKOCytomation) was visualized with tetramethylbenzidine (TMB, #45.01.20,/#45.014.01, Biosource, Nivelles, Belgium). The reaction was stopped after 5 minutes with 1% H2SO4 in H2O. Plates were read at 450 nm. Triplicates were averaged and standard deviations calculated. Background signals obtained with buffer-coated wells were subtracted (binding of primary antibody to empty wells), as well as background signals obtained with ligand-coated wells in which the chaperones were omitted (binding of primary and secondary antibody to coated ligands). Subsequently, sub-optimal concentrations of chaperones for binding to misfolded protein ligands are determined, and these concentrations are used for inhibition studies. […] We have previously identified that a sub-fraction of IgIV molecules has affinity for misfolded proteins comprising crossbeta structure (pending patent application). Moreover, we identified that the sub-fraction of IgIV molecules directly binds to crossbeta structure and/or crossbeta structure induced conformation (not shown; pending patent application). […]

human BiP = molecular target: T2, human BiP (Homo sapiens, UniProt P11021); experiment: ELISA: binding of BiP-FLAG-His to immobilized (misfolded) protein ligands; conditions: ligands coated at 5 μg/ml; 6BB peptides and oxLDL 50 μg/ml
T2 construct: The human BiP gene except the signal peptide encoding region was obtained from Geneart (Germany); linker […]; made in house; host or cells: HEK 293E cells, transient transfection, PABC674 vector; secreted into the medium
T2 sequence (P11021 19-654): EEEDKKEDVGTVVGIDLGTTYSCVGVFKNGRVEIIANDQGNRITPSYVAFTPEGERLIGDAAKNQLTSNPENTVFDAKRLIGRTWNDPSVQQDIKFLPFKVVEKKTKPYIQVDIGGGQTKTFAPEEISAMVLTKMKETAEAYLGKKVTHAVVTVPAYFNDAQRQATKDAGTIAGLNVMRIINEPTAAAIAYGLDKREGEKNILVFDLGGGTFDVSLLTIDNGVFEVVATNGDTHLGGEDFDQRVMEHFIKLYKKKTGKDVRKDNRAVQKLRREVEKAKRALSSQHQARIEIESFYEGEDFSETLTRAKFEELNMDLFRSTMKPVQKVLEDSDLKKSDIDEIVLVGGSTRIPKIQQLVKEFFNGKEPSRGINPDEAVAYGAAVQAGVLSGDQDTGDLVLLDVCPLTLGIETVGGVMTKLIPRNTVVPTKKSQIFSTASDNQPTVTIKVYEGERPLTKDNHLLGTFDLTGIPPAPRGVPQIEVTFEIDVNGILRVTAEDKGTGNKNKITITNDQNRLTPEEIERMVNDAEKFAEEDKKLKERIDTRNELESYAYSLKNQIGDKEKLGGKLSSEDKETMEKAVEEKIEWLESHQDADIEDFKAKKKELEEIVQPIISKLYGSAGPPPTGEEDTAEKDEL
How it was run: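 Ligands were coated at 5 μg/ml (50 μg/ml for 6BB# peptides and oxLDL) in 50 mM NaHCO3 pH 9.6, blocked, then incubated in triplicate with BiP-FLAG-His dilution series for 1 h at room temperature. Bound BiP was detected with peroxidase anti-FLAG M2 and TMB, stopped after 5 min and read at 450 nm. Buffer-only and chaperone-omitted background signals were subtracted.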

T1 sequence (P0A6Y8 whole entry): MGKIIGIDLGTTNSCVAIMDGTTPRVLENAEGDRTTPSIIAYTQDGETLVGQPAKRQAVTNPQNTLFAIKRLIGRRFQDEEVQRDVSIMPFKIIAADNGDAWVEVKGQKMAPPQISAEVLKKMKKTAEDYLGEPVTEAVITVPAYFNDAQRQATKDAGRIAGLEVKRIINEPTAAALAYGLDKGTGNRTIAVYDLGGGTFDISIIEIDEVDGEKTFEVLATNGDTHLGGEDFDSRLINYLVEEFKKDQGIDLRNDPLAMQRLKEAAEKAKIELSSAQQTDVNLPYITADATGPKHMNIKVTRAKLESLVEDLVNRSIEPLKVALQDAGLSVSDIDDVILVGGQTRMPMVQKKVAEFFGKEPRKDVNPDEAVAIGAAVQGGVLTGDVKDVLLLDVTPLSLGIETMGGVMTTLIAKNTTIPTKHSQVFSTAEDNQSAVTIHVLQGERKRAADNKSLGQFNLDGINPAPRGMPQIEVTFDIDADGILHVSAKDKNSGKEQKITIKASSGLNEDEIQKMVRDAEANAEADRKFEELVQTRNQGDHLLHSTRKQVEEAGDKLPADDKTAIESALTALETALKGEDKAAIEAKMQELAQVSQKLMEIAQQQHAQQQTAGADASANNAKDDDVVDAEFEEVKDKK

AGEYYAAL [6BB7]
Binding of concentration series of DnaK to coated ligand [1]: No binding
Binding of concentration series of BiP to coated ligand (human BiP): did not bind

BSA-AGE
Binding of concentration series of DnaK to coated ligand [1]: has been established
Binding of concentration series of BiP to coated ligand (human BiP): has been established

GSNKGAIIGLM [6BB6, Human Aβ (25-35)]
Binding of concentration series of DnaK to coated ligand [1]: has been established
Binding of concentration series of BiP to coated ligand (human BiP): has been established

Hb: non-modified human haemoglobin control
Binding of concentration series of DnaK to coated ligand [1]: Low binding
Binding of concentration series of BiP to coated ligand (human BiP): did not bind

HbAGE: human haemoglobin glycated with glucose-6-phosphate for 75 weeks
Binding of concentration series of DnaK to coated ligand [1]: has been established
Binding of concentration series of BiP to coated ligand (human BiP): has been established

KLVFFAE [6BB12, Human Aβ16-22]
Binding of concentration series of DnaK to coated ligand [1]: did not bind
Binding of concentration series of BiP to coated ligand (human BiP): no BiP binding was observed

native BSA: non-modified bovine serum albumin control
Binding of concentration series of DnaK to coated ligand [1]: No binding
Binding of concentration series of BiP to coated ligand (human BiP): did not bind
